From the supplement of paper PMC9170038

Tested on: K4 kissing-loop RNA reporter
Test: apparent KD of K4 kissing-loop reporter; higher = weaker reporter binding
Details: Eterna round: R107
Protocol: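 RNA-MaP round R107: designed RNA switches with theophylline, tryptophan, arginine or FMN aptamers are transcribed on-chip within common flanks. They are titrated with a labelled K4 kissing-loop RNA reporter in RNA-MaP buffer (100 mM Tris pH 7.5, 80 mM KCl, 4 mM MgCl2), without ligand or with the indicated ligand. Median apparent KD per design.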

[1] = input ligand: theophylline 20 uM
[2] = input ligand: tryptophan 2.4 mM
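Also: bound reporter read as fluorescence of individual clusters on recovered sequencing chips by microscopy, with normalized cluster intensities fitted with a binding model.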

Sequence | apparent KD of K4 kissing-loop reporter (input ligand: FMN 200 uM) [nM] | apparent KD of K4 kissing-loop reporter (input ligand: arginine 13.2 mM) [nM] | apparent KD of K4 kissing-loop reporter (input ligand: none) [nM] | apparent KD of K4 kissing-loop reporter [1] [nM] | apparent KD of K4 kissing-loop reporter [2] [nM]
UGAACUUUUGCUAGGAACCGUCUAGCUCUUUAGGAUAUCUGGAAACAGAGAAGGAAAGACCUACAGAGUGAUGUUCUGCGUUCAU | 383 | 268 | 316 | 316 | 263
AGGUGAGACUGAAGGAGCGAUCGCGCCAGUGAUGUUGGUGAGCAUGACAAAGUCAUGCACGAUCAGGUAGGUCGCAGUCUUACUC [Omei KL Arginine B SS B v2] | 199 | 156 | 206 | 188 | 185
GGAUUCACCAGUGAUGUUGGAGAAAACUCGAAGGAUAUGACGAAAGUCAGAAGGUCGUAGACUGGACAAAGUCCGGUCGGAUCCA [KL-SSFMN-A22] | 419 | 250 | 299 | 359 | 279
CGCAAGCAGCCAGUGAUGUUGGCUGCCUUGCGAGGACCGGUACGGCCGCCACUCGAAGGCAGCUACUGGUAAACCGUCUAACGGA [Atere] | 117 | 105 | 111 | 90.7 | 250
GGAUCCACCAGUGAUGUUGGAGAAAACUCAAAGGAUAUGACGAAAGUCAGAAGGUUGUAGACUGGACAAAGUCCGGUCGGAUCCA [FmnA 19 A30+U56] | 450 | 504 | 650 | 613 | 475
UUAGCCCUAUAGGGCAAGACCUAUACUGAUACCAGAGGGUAUACCCUCCCUUGGCAGCGGAUCGAGUGAUGUUCGUAAGGUCAUU [AK4.4 SS Theophylline A] | 741 | 730 | 844 | 776 | 572
CUGAUGCUGAUGCGGCGGCCGGUGGUCGUGCGAGGACCGGUACGGCCGCCACUCGCGCGAGUGAUGUUCGCGCGUCGUCGUCGUC [First Shot] | 120 | 91.4 | 114 | 76.9 | 117
GACGGGCAGUGAUGUUGCCGGUCUCUUGGACGAGGACCGGUACGGCCGCCACUCGAUCUGAUGCGAGAAUUGUAUCUUUUAAUAA [Tegesosoat] | 250 | 177 | 242 | 346 | 347
UGAUUUAACUGAAGGAGCGGCAAUUGAUAAGUAAAUAUAGUGAUGUUAUAUAAGAUAGAGAGCCAGGUAGGUCGCAGAGGUAGGA [ExArgB.K] | 193 | 139 | 152 | 178 | 127
UGACUGGACUGAAGGAGCGCUAAACUCCUAGUGAUGUUAGGGAACCGAGACAAAGUCUCGAGGCAGGUAGGUCGCAGUCUAGUCU [FiskerMod 2 - Jieux - Same State - Arginine B] | 295 | 253 | 307 | 359 | 288
CACUCGGUAUCAGAUACCAGACUAACGAUACCGAGUGUAUCGGGUAGUGAUGUUACCAUAGUCCCUUGGCAGCUGAUAUACCAUA [Theo B SS t9] | 249 | 242 | 265 | 269 | 223
UCCUUAUCGCGGUCAUAAAGCCUAUAAAACAAGGAUAUCUCAUCAGAGAGAAGGUGUGAGUGAUGUUCAAAGGCCACCACGGGUU [theeternabot_sameState_KL_FMN_A_47] | 654 | 724 | 840 | 453 | 818
AUAUAGAGUGAUGUUCAUGAGUAUUUCGAAGGAGCGCUAAAUAAGGCAGGUAGGUCGCGGAAAAUAUAUAUAUAGAUAUAUAUAU [KL-SSArg-A29] | 168 | 351 | 535 | 665 | 280
GUGCAGUGAUGUUGCACGAGGAAAGACGAUACCAGCCGCAAAUGUGGCCCUUGGCAGCGUGGGCUAGCACAAAAUAUGCUAGUCU [Ricegeusat] | 131 | 113 | 119 | 98.9 | 108
CUGUCCUACGAAGGAUAUGCUGAUGGGAUCAAACAGUGAUGUUGUUAUGAACUUAGGCUUAUGUGCGCAGAAGGUCGUGGCGACG [theeternabot_sameState_KL_FMN_B_42] | 236 | 396 | 264 | 801 | 546
UGCACGUAGUGAUGUUACAGCAAGUUUAUGAAGGAUAUGAGGUUAGUCAGAAGGUCAGCCGUCUCGUUGUAAGCACCUUAUCAUU [theeternabot_exclusion_KL_FMN_A_14] | 305 | 144 | 232 | 158 | 155

Sequence | apparent KD of K4 kissing-loop reporter (input ligand: FMN 200 uM) [nM] | apparent KD of K4 kissing-loop reporter (input ligand: arginine 13.2 mM) [nM] | apparent KD of K4 kissing-loop reporter (input ligand: none) [nM] | apparent KD of K4 kissing-loop reporter [1] [nM] | apparent KD of K4 kissing-loop reporter [2] [nM]
GGAUAGGACAGAGGAUAUGGACAGUCUACAAAGUAGGCUGAAUAAAUCCUUGAAUGGAGUGAUGUUCCAGAAGGCUGUCCUAUCG [FmnBX 22 #SwitchBubble #StaticStem #Palindromic] | 337 | 384 | 503 | 481 | 426
GACUACCGGGCGGCCGCCACUGGGCUCCGAGUGAUGUUCGGAAAGACUCAUACACUGCUGUCAGACAGGACCGGGCCAAGGCGCA [theeternabot_sameState_KL_Trp_B_5] | 145 | 170 | 172 | 201 | 151
UAACGCCACUAAGAUACCAGACAUACAGAUCGGAUCUCCUAAAGAGAGUGAUGUUCUCUAGUCCCUUGGCAGCUUCUGGACUCCC [theeternabot_sameState_KL_Theo_B_9] | 296 | 356 | 406 | 396 | 291
GGUGUUGUUUGUGCCGUUUUCCUCGUUCCUCGAGGACCGGUACGGCCGCCACUCGAGUGAUGUUUGGGUAGCGAUCCCUGUUAGU [Bdazzled - #9 Exc. Tryptophan A] | 868 | 646 | 871 | 802 | 766
GAUCUAUGUCCCGAUACCAGCUCAGAAGCUAGGGAGUGAUGUUCUCGGAGGUUAUCACUGAGCCCUUGGCAGCGGAACGUGACGA [theeternabot_sameState_KL_Theo_B_26] | 227 | 182 | 239 | 230 | 218
CAUACGCAUGGAGGAUAUGAGAUUUCUCAUAUUAUUUAAUAUUCUCAGUGAUGUUGAGAAUUUAACUCAGAAGGCCAUGUGUAUG [Ex FMN B 5] | 316 | 149 | 156 | 154 | 152
UUGGCCGGACGGGAUACCAGUCAAAUCGUGUGCUUGGGAUGUCUAAGAGCCAGUGAUGUUGGCCCUUGGCAGCCCUCCCAGCUUG [Esleaqu] | 111 | 105 | 110 | 102 | 93.5
AAUCAAUACAGAAGGAGCGUGACAAUUACUAUUGAUUCAGGAGCUAGUGAUGUUAGCAUUUCACAGGUAGGUCGCUGUACAUUUA [JR_SSArginiB_Sub013] | 165 | 203 | 201 | 213 | 153
GAACGGCGGGCGGCCGCCACUGGUAUACGAGUGAUGUUCGGAUAUACGUGAUGUAAGGUAAUUAUCAGGACCGGGUCAGAGCCGG [#16 K4 Tryptophan B Same State] | 394 | 183 | 303 | 341 | 167
CACCGGACGAAAGAUACCAGUUACUAUAUUAGGGUGCCUUGGCUAGUGAUGUUAGAGAGUAACCCUUGGCAGCUUUGGUACUUAU [theeternabot_exclusion_KL_Theo_B_21] | 380 | 367 | 390 | 319 | 335
ACGUGUCACUGAAGGAGCGUCUACCGAAUACGAGUGAUGUUGGUAUACCACUUAUAUAGUGGACAGGUAGGUCGCAGUGAUACGU [Arg B Ex t4] | 987 | 769 | 938 | 757 | 837
AGGUCACAACUACAGUGAUGUUGUGGAGAGCAGGAUAUGCAGAAAUGCAGAAGGGCUCGCUCUCUAGUGACCGAUCAAAAGAUCA [Omei KL FMN A SS A v9] | 1360 | 311 | 669 | 545 | 532
UAGCGGGCGAUUCGACGUGCGUCCAGUCAUCGAGGACCGGUACGGCCGCCACUCGCCGGAGUGAUGUUCCGGUACGUCAUAUAAU [theeternabot_sameState_KL_Trp_A_35] | 406 | 358 | 398 | 422 | 197
AAUGUACAGGGAAGGAGCGUAGUCCAGUGAUGUUGGAAUUAAAUUCCUGUGAUGUUGGUUAUACAGGUAGGUCGCCCUAAAGUGC [KL-XARG-B21] | 112 | 92.2 | 108 | 118 | 93.3
AUCUGGUUGGGCGAUACCAGUUUGGCAUAGUGAUGUUAUGCAACGCUCAGUGCAAGGCCAAACCCUUGGCAGCGCACAUCCUUUC [theeternabot_exclusion_KL_Theo_B_3] | 128 | 99.1 | 105 | 117 | 105
CGCAGUGAUGUUGCGAGUAGAUACAGGGAAGGAGCGCCGUAGUAGGCAGGUAGGUCGCCCACGCAGUGAUGUUGCGUCAUAGGGU [Exclusion Arginine A GF 5] | 104 | 91.8 | 97.1 | 116 | 87.6
